The record followed here is patent US20130096072A1 (Genentech, published 2013).

Series [1] deals with IVGG.147A peptide.
In series [2] the target is T1, scHGF β-chain (zymogen-like HGF β, residues Asn479 to Ser728, R494E, C-terminal His-tag) (human, UniProt P14210 479-728).
T1 construct: Expressed in insect cells; also called zHGF β; zymogen-like form of HGF β; not shown: C-terminal His-tag
Description: phage panning against scHGF β (4 rounds) and phage ELISA. An excerpt:
The pfam database (Finn, R. D. et al. (2010) Nucleic Acids Res 38: D211-22) was used to derive a consensus sequence for trypsin/chymotrypsin-like serine proteases and identify the N-terminal IVGG motif. Peptide libraries were synthesized as fusions to the gene VIII coat protein of M13 phage and panned against scHGF β as previously described (Tonikian, R. et al. (2007) Nat Protoc 2: 1368-86; Sidhu, S. S. et al. (2000) Methods Enzymol. 328:333-63). […] Single phage clones were picked, grown overnight and a standard phage ELISA was used to verify target specific binding. Once the IVGG.14 sequence was identified, soft randomization on gene VIII was performed on positions X₂-X₁₁.
On the technique in general: An ELISA detects its analyte on a solid surface through an enzyme-linked reagent.

For series [3], the target named is T1, scHGF β-chain (zymogen-like HGF β, …). As to the kind of experiment: BLI (OctetRed) scHGF β activation/Met binding assay: peptide titrated into 0.5 µM scHGF β over biotinylated Met Sema/PSI on streptavidin tips; steady-state single-site fit. The protocol:
Met binding assays were carried out utilizing the OctetRed™ biolayer interferometry instrument (ForteBio, Inc.) as reported previously (Landgraf, K. E. et al. (2010) J Biol Chem 285: 40362-72). Biotinylated Met ECD (Sema/PSI-AviTag) was captured on the surface of streptavidin optical sensor tips (SA biosensors, ForteBio, Inc.), and transferred into buffer containing 0.5 μM scHGF β-chain variants in the presence of increasing concentration of indicated peptides. Association and dissociation reactions were monitored to ensure reversible binding between scHGF β and Met. Binding was quantified using the steady-state levels of surface response from the association reaction. Equilibrium constants were derived by least squares fitting of the titration data to a single-site binding equation. Errors reported are ±stdev of n=3 independent experiments.
Based on the finding that the consensus ZAPs contain features consistent with binding and inserting into the activation pocket, several related peptides were synthesized and utilized in a previously established scHGF β activation assay to assess their affinities and ability to active Met binding (Landgraf, K. E. et al. (2010) J Biol Chem 285: 40362-72). Since scHGF β can only weakly interact with the Met Sema-PSI domain compared to the active HGF β form, biolayer interferometry was used in the activation assay to measure the ability of a peptide to directly enhance the binding affinity of scHGF β to a streptavidin sensor surface coated with biotinylated Met (Landgraf, K. E. et al. (2010) J Biol Chem 285: 40362-72). Thus, titration of an activator peptide should result in a significant increase in the surface response signal due to enhanced scHGF β binding to Met.

Series [4] has the same target. Description: BLI scHGF β activation/Met binding assay.
Series [5] deals with scHGF (non-cleavable form of full-length pro-HGF with a mutated cleavage site) (human, UniProt P14210 32-728). Description: cell-based or functional assay.
Chain of scHGF (non-cleavable form of full-length pro-HGF with a mutated cleavage site) (P14210 32-728 limits assumed, change not shown): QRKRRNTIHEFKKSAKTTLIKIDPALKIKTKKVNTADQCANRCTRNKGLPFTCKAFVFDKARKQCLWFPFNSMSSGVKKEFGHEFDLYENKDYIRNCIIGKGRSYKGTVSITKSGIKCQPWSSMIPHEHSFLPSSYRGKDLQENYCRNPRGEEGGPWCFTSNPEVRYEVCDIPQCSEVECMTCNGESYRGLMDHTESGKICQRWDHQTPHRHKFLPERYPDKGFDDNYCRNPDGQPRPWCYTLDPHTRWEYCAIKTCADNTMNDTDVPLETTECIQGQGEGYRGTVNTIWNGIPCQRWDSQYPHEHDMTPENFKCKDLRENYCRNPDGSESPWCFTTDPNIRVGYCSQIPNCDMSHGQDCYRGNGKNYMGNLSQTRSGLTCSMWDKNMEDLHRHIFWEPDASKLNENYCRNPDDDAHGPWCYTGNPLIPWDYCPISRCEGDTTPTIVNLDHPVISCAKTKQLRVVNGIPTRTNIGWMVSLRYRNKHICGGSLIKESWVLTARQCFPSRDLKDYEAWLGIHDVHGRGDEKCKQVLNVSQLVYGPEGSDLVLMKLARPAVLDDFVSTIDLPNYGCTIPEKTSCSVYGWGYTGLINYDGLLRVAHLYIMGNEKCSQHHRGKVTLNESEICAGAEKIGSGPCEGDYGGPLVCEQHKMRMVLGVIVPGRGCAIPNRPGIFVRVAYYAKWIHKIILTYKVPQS

Bridges are numbered along the chain shown (N, C = ends). Where no end group is shown, it is not given here. [ ]: non-standard residue; d: D form. Hyp = O=C(O)[C@@H]1C[C@@H](O)CN1 Some results are limits rather than exact numbers.

T1 sequence (P14210 479-728 R494E): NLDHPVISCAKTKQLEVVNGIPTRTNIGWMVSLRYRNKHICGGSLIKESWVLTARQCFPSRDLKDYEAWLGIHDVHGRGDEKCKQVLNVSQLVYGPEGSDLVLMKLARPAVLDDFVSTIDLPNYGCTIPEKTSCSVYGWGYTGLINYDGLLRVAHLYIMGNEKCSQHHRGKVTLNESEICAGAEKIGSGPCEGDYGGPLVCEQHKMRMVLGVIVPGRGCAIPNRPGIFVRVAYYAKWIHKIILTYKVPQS

As for Protein C (zymogen), the “initial rate of hydrolysis (Vi) of Ile-Pro-Arg-pNA, 100 nM enzyme, 2 mM substrate” value in series [1] was “the initial rate of substrate hydrolysis (Vi) for both prethrombin-2 and Protein C zymogens significantly increased upon titration of IVGG.147A into the reaction”.

prethrombin-2: the “initial rate of hydrolysis (Vi) of Ile-Pro-Arg-pNA, 100 nM enzyme, 2 mM substrate” value in series [1] is “the initial rate of substrate hydrolysis (Vi) for both prethrombin-2 and Protein C zymogens significantly increased upon titration of IVGG.147A into the reaction”.

B1: ZAP.15 phage clone (ZAPtide Library) (peptide)
chain: IVGGDPWWFVS
modifications: not fully specified
notes: not shown: M13 gene VIII coat protein fused after the peptide
B1: in series [2], the binding result is reported as “binds”.

B2: ZAP.11 phage clone (ZAPtide Library) (peptide)
chain: IVGGHPMSPFS
modifications: not fully specified
notes: as for B1
Consider B2, for which the binding result in series [2] is recorded as “binds”.

B3: ZAP.01 (linear 15-mer synthetic peptide) (peptide)
peptide: IIGGDPYWVPHPGDA-NH2
For the molecule B3, the affinity in series [3], expressed as Kd, was 6 µM.

B4: ZAP.25 phage clone (ZAPtide Library) (peptide)
chain: IVGGNKIWSVS
modifications: not fully specified
notes: as for B1
As for B4, in series [2], the binding result is on record as “binds”.

B5: IVGG.14 phage clone (ZAPtide Library) (peptide)
chain: IVGGYPWWMDV
modifications: not fully specified
notes: as for B1
As to B5, the binding result in series [2] is given as “binds”.

B6: IVhyP.14 peptide (peptide)
peptide: IVGGY[Hyp]WWMDV-NH2
notes: Printed as I V G G Y hyP W W M D V
Consider B6, for which the Kd (commonly the concentration at which binding is half-saturated) in series [3] was found to be 14 µM. Besides, in series [4], the “fold enhancement relative to IVGG.14” value was 2 fold.

B7: ZAP.18 phage clone (ZAPtide Library) (peptide)
chain: IVGGFVFWCDQ
modifications: not fully specified
notes: as for B1
With B7, in series [2], the binding result is reported as “binds”.

B8: ZAP.54 phage clone (ZAPtide Library) (peptide)
chain: IVGGLDVEYEL
modifications: not fully specified
notes: as for B1
As to B8, in series [2], the binding result is listed as “binds”.

B9: IIhyP.14 peptide (peptide)
peptide: IIGGY[Hyp]WWMDV-NH2
notes: Printed as I I G G Y hyP W W M D V
For the molecule B9, the Kd in series [3] was 5 µM. Besides, in series [4], the “fold better than IVGG.14” value is 7 fold and the “fold better than the previously described peptide activators” value was more than 400 fold.

B10: IVdG.14 peptide (peptide)
peptide: IV[dD]GYPWWMDV-NH2
notes: Printed as I V d G Y P W W M D V, d = D-aspartic acid
Consider B10, for which, in series [5], the “EC50, BxPC-3 cell survival assay, peptide titrated with scHGF” value was approximately 20 µM. The equilibrium dissociation constant (Kd) in series [3] came out at 21 µM. The “fold better than peptides previously described” value in series [4] was found to be 100 fold.

B11: ZAP.53 phage clone (ZAPtide Library) (peptide)
chain: IVGGYPWWVDV
modifications: not fully specified
notes: as for B1
In the case of B11, in series [2], the binding result is on record as “binds”.

B12: IVDG.14 peptide (peptide)
peptide: IVDGYPWWMDV-NH2
B12 gave a Kd in series [3] of 85 µM.

B13: ZAP.03 phage clone of Table 4B (ZAPtide Library, SEQ ID NO:129) (peptide)
chain: IVGGDFYSSYW
modifications: not fully specified
notes: as for B1
For B13, the binding result in series [2] was “binds”.

B14: ZAP.01a phage clone (ZAPtide Library) (peptide)
chain: IVGGVRCWVSN
modifications: not fully specified
notes: Not the 15-mer ZAP.01; not shown: M13 gene VIII coat protein fused after the peptide
For the molecule B14, in series [2], the binding result is recorded as “binds”.

B15: ZAP.45 phage clone (ZAPtide Library) (peptide)
chain: IVGGKWQRKRV
modifications: not fully specified
notes: as for B1
Consider B15, for which, in series [2], the binding result was “binds”.

B16: ZAP.13 phage clone (ZAPtide Library) (peptide)
chain: IVGGYPWWITG
modifications: not fully specified
notes: as for B1
As for B16, the binding result in series [2] is “binds”.

B17: ZAP.50 phage clone (ZAPtide Library) (peptide)
chain: IVGGDYYWVVQ
modifications: not fully specified
notes: as for B1
As to B17, the binding result in series [2] is “binds”.

B18: ZAP.52 phage clone (ZAPtide Library) (peptide)
chain: IVGGLWEMWVT
modifications: not fully specified
notes: as for B1
B18: the binding result in series [2] is “binds”.

B19: ZAP.43 phage clone (ZAPtide Library) (peptide)
chain: IVGGDPVYVLY
modifications: not fully specified
notes: as for B1
With B19, the binding result in series [2] was “binds”.

B20: ZAP.30 phage clone (ZAPtide Library) (peptide)
chain: IVGGYPAWMEY
modifications: not fully specified
notes: as for B1
On to B20, for which the binding result in series [2] is given as “binds”.

B21: ZAP.65 phage clone (ZAPtide Library) (peptide)
chain: IVGGEPAYWYW
modifications: not fully specified; also: fused before M13 gene VIII coat protein, linker not given here
notes: as for B1
Take B21: the binding result in series [2] was “binds”.

B22: ZAP.39 phage clone (ZAPtide Library) (peptide)
chain: IVGGSACLIAM
modifications: not fully specified
notes: as for B1
For the molecule B22, the binding result in series [2] is reported as “binds”.

B23: ZAP.67 phage clone (ZAPtide Library) (peptide)
chain: IVGGPHKAFLL
modifications: not fully specified; also: fused before M13 gene VIII coat protein, linker not given here
notes: as for B1
As to B23, the binding result in series [2] is recorded as “binds”.

B24: ZAP.03S peptide (peptide)
peptide: IIGGSPYWMDREESI-NH2
notes: ZAP.03 with both cysteines changed to serine; no disulfide
The molecule B24 came in with a Kd in series [3] of 59 µM.

B25: ZAP.04 phage clone (ZAPtide Library) (peptide)
chain: IVGGSDFPWWV
modifications: not fully specified
notes: as for B1
As to B25, in series [2], the binding result is given as “binds”.

B26: ZAP.06 phage clone (ZAPtide Library) (peptide)
chain: IVGGDGMPWWI
modifications: not fully specified
notes: as for B1
Turning to B26, in series [2], the binding result is “binds”.

B27: ZAP.32 phage clone (ZAPtide Library) (peptide)
chain: IVGGEPVWYVW
modifications: not fully specified
notes: as for B1
In the case of B27, the binding result in series [2] was “binds”.

B28: ZAP.91 phage clone (ZAPtide Library) (peptide)
chain: IVGGYPVYFLN
modifications: not fully specified; also: fused before M13 gene VIII coat protein, linker not given here
notes: as for B1
For B28, the binding result in series [2] is on record as “binds”.

B29: ZAP.03 (cyclic 15-mer synthetic peptide) (peptide)
peptide: IIGGCPYWMDREECI-NH2
modifications: disulfide 5-14
notes: also called ZAP2.3; ZAP.-3
With B29, in series [5], the “EC50, HeLa cell migration in an in vitro wound closure assay” value amounted to 0.06 µM and the “EC50, cell survival of BxPC3 cells during serum starvation” value came out at 0.4 µM. Moreover, binding in series [3] was put at a Kd of 0.3 µM. Also, the “fold improvement relative to IVGG.14” value in series [4] was approximately 100 fold.

B30: ZAP.63 phage clone (ZAPtide Library) (peptide)
chain: IVGGMRLCGYI
modifications: not fully specified; also: fused before M13 gene VIII coat protein, linker not given here
notes: as for B1
B30: in series [2], the binding result was “binds”.

B31: ZAP.29 phage clone (ZAPtide Library) (peptide)
chain: IVGGTRCNDWI
modifications: not fully specified
notes: as for B1
As to B31, the binding result in series [2] is “binds”.

B32: ZAP.09 phage clone (ZAPtide Library) (peptide)
chain: H-IVGGDYWWVPI
modifications: not fully specified
notes: as for B1
As for B32, in series [2], the binding result is reported as “binds”.

B33: ZAP.24 phage clone (ZAPtide Library) (peptide)
chain: IVGGCKRSYWE
modifications: not fully specified
notes: as for B1
Regarding B33, the binding result in series [2] is given as “binds”.
